Target: RAD51 WT (human, UniProt Q06609 1-339)
Assay: EMSA; 2 mM ATP, 10 mM Mg2+; 20 mM Hepes-NaOH pH 7.5, 0.1 mg/ml BSA, 1 mM DTT, 10 mM MgCl2, 150 mM KCl, 2 mM ATP or AMP-PNP or no nucleotide, 2.7 uM (nt) DNA, 37 C 10 min; 8% native PAGE in 1x TBE
Settings: protein: recombinant; tags: N-terminal His-tag removed with thrombin; chain copies: 8; label: 5'-Cy5 on strand 1; blunt

Sequence of RAD51 WT (Q06609 whole entry): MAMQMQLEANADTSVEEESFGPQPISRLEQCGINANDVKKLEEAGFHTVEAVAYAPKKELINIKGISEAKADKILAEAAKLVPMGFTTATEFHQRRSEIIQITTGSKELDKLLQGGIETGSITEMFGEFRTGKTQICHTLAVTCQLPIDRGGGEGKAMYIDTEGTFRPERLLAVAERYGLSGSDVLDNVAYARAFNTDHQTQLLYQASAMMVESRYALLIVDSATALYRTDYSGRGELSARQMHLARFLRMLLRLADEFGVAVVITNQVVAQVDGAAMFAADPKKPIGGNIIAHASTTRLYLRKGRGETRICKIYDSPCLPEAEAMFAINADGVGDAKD

B1: Cy5-OL4/OL5 40-mer (dsDNA)
DNA 1: TAATACAAAATAAGTAAATGAATAAACAGAGAAAATAAAG
DNA 2: CTTTATTTTCTCTGTTTATTCATTTACTTATTTTGTATTA
binding result: binds

From PMC10716581, “Fanconi anemia-associated mutation in RAD51 compromises the coordinated action of DNA-binding and ATPase activities”
